Experimental findings from patent US20230131339A1, “EPI-X4 BASED PEPTIDES AND DERIVATIVES THEREOF” (Universitaet Ulm, priority 2020, published 2023) are described below.

In series [1] the test system is CXCL12 induced Ca2+-signalling. Briefly: Ca++ signaling in BCR-ABL-transformed murine bone marrow cells. In kind it is cell-based. To be noted: 1 μM. As for the experimental part: Fifth, it was shown that the peptide derivatives inhibit calcium-signaling. CXCL12 stimulation of CXCR4 expressing B-cells leads to a strong calcium-release. In the presence of CXCR4 antagonists this response is reduced.
For calcium measurement, 1×10^6 BCR-ABL-transformed murine bone marrow cells were incubated with 5 μg/mL of Indo-1 (Molecular Probes) and 0.5 μg/mL of pluronic F-127 (Molecular Probes) in Iscove's medium supplemented with 1% FCS (Pan Biotech) at 37° C. for 45 min. Cells were then washed by centrifugation and the cell pellets were resuspended in Iscove's medium with 1% FCS and treated with the EPI-X4 derivatives (1 μM or 0.5 μM) for 10 minutes at room temperature. Cells were pre-warmed for 5 minutes at 37° C. Calcium flux was assessed by FACS measurement at BD LSR Fortessa. After 30 seconds of baseline recording, CXCR4-dependent calcium signaling was determined by stimulating with 100 ng/ml of mouse SDF-1a (PeproTech).

Series [2] relates to CXCR4-tropic X4-HIV-1 (NL4-3). In kind it is cell-based. To be noted: CXCR4-tropic X4- (NL4-3).
Method: The activity of the peptides was estimated by different assays.
The X4-HIV inhibition assay is designed to measure the activity of the inventive peptides by their efficiency of blocking the infection of tissue culture cells by CXCR4-tropic HIV-1 variants.
HIV-1 inhibition assay. […] For infection of TZM-bl cells in presence of inhibitors, cells were seeded at a density of 1×10^5 cells/ml in 70 μl DMEM containing 2.5% FCS. Compounds were diluted in PBS and 10 μl were added. After 15 minutes of incubation cells were inoculated with 20 μl of diluted virus. Infection rates were determined three days later using Gal-Screen system (Applied Biosystems).
Series [3] deals with CXCL12 induced migration of T-cells. Briefly: Migration assay (transwell, Jurkat cells). Type of series: cell-based. The protocol: For each peptide, three independent experiments were performed. The error bars refer to the standard deviation.
Migration assay. Migration assays were performed using 96-well transwell assay plates (Corning Incorporated, Kennebunk, Me., USA) with 5 μm polycarbonate filters. […] Next, 75 μL (0.5×10^5 cells) of Jurkat cells (in assay buffer), together with/without the compounds, were added into the upper chambers. After 4 h at 37° C. (5% CO2), 100 μL of the lower chambers were transferred to a fresh 96 V-well plate and analyzed with Cell-Titer-Glo® assay (Promega, Madison, Wis., USA). The percentage of migrated cells was calculated as described by Balabanian et al. (2005). In order to obtain the relative migration in %, the percentage of migrated cells were normalized to the CXCL12-only control.

Series [4] is described as follows: Stability assay in human S9 liver fractions. The settings on record: with cofactors.
Method: (§2) Further, the stability of peptides in human S9 liver fractions (in the presence of cofactors) was tested (FIG. 12). […] To simulate and predict hepatic metabolic clearance, peptides were added to human S9 liver fractions. […] For each peptide, three independent experiments were performed.
(§3) Stability assay in human S9 liver fractions. Pooled human liver S9 fractions were obtained from Thermo Fisher Scientific at a total protein concentration of 20 mg/ml. Fractions were stored in 25 μl aliquots at −80° C. For stability experiments, they were diluted to a final concentration of 0.5 mg/ml in Tris buffer. Cofactors (or buffer) were added immediately before start of the experiment (NADPH: 1 mM, UDPGA: 0.5 mM, GSH: 2.5 mM, PAPS: 0.05 mg/ml, Sigma Aldrich). The reaction was started by adding peptides or compounds at a concentration of 20 μM to the mixture and gentle agitation at 37° C. Determination of enzymatic stability was performed as described for plasma.
For series [5] the following is noted: mouse, in vivo, iv.
Excerpt: To do so, the labeled conjugate was intravenously injected into the tail vein of immunodeficient mice, followed by localization and quantification of radioactivity within the body using positron emission tomography (PET).
The conditions of series [6]: s9, 8 h.
Method: as §2, §3
Series [7] addresses T1, CXCR4 (Homo sapiens, UniProt P61073).
T1 construct: endogenous in cells; host or cells: SupT1 cells
Briefly: 12G5-assay | IC50 (nM). The source says:
(§1) Table printed on a drawing sheet, Figure 2
Title: A Truncated Palmitoylated-JM#21
Head of the field: 12G5-assay | IC50 (nM)
First copying reader's note: The table is the legend of the plot in panel A; the first column also carries the plot symbols, which are not copied.
Where the first naming reader finds the target: passage: Values determined by the competition assay represent the potency of a compound to compete with an antibody that specifically binds to the binding pocket (ECL2) of CXCR4

Series [8] addresses T1, CXCR4. Briefly: 12G5-assay IC50 (nM).
Excerpt: as §1
Title: B Truncated Palmitoylated-JM#21 N-terminally modified
Head of the field: 12G5-assay IC50 (nM)
First copying reader's note: The table doubles as the legend of the antibody competition plot beside it; the plot symbols before the names are not copied.
Where the first naming reader finds the target: passage: compete with an antibody that specifically binds to the binding pocket (ECL2) of CXCR4

Series [9] concerns the target T2, CXC chemokine receptor type 4 (CXCR4) (human, UniProt P61073 1-352).
T2 chain: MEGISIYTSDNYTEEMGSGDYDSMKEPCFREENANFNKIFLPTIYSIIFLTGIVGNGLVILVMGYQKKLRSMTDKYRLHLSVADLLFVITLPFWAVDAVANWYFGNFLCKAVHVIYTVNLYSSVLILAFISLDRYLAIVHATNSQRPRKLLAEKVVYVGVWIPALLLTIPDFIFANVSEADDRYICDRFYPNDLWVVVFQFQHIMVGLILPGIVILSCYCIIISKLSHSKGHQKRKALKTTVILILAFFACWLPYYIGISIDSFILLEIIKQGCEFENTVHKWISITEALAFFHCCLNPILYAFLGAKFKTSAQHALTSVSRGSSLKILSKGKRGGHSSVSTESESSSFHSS
Briefly: 12G5 antibody competition.

Series [10] has as its target T3, CXC chemokine receptor type 4 (CXCR4) (human, UniProt P61073 1-352). Briefly: cell-based or functional assay.
For series [11], the target named is T2, CXC chemokine receptor type 4 (CXCR4). Briefly: 12G5 antibody competition.
Series [12] has the same target. Briefly: competition.
The target of series [13] is T3, CXC chemokine receptor type 4 (CXCR4). Briefly: antibody competition assay (FIG. 5).
The target is the same in series [14]. Briefly: 12G5-APC antibody competition on SupT1 cells, flow cytometry. The protocol:
To the right of the diagrams, an assignment of the curves to the tested peptides is explained. […] Three independent experiments were carried out for each peptide in each assay. The error bars refer to the standard deviation.
Antibody competition assay. Competition of compounds with antibody binding was performed on SupT1 cells. For that cells were washed in PBS containing 1% FCS and 50,000 cells were then seeded per well in a 96 V-well plate. Buffer was removed and plates were precooled at 4° C. […] The antibody was used at a concentration closed to its determined Kd. 15 μl compounds were then added to the cells and 15 μl antibody immediately afterwards. Plates were incubated at 4° C. in the dark for 2 hours. Afterwards cells were washed twice with PBS containing 1% FCS and fixed with 2% PFA. Antibody binding was analyzed by flow cytometry (FACS CytoFLEX; Beckman Coulter®).

The target of series [15] is T2, CXC chemokine receptor type 4 (CXCR4). Briefly: competition.
Series [16] has the same target. Briefly: competition.
The target of series [17] is T4, CXC chemokine receptor type 4 (CXCR4) (human), P61073.
T4 chain: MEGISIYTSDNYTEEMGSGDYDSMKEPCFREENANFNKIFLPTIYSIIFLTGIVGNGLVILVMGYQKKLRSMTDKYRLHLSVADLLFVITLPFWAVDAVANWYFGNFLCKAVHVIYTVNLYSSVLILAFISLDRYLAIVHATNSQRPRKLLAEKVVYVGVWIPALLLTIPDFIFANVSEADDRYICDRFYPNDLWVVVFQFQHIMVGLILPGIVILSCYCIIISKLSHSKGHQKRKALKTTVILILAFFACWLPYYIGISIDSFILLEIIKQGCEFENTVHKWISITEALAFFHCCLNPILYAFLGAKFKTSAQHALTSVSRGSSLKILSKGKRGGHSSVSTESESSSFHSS
Briefly: 12G5-APC antibody competition on SupT1 cells, flow cytometry. (In general: Flow cytometry measures light scatter and fluorescence of single cells or particles in a stream.)

Series [18] concerns the target T4, CXC chemokine receptor type 4 (CXCR4) …. Briefly: competition. The settings on record: chains peptide; modification not given.
The target is the same in series [19]. Briefly: cell-based or functional assay.

Read-outs that look alike come from different tables or passages of the source. Where a SMILES comes first, the peptide text is derived from it. Where no end group is shown, it is not given here. Side-chain parts run from the residue outwards. The star is where a group is joined. DOTA = O=C(O)CN1CCN(CC(=O)O)CCN(CC(=O)*)CCN(CC(=O)O)CC1; Stearoyl = CCCCCCCCCCCCCCCCCC(=O)*; Palmitoyl = CCCCCCCCCCCCCCCC(=O)*; Glu = glutamate linker

A word on the IC50: it is the concentration that gives 50% inhibition. Low values mean inhibition by little substance, high ones a need for much substance. For `CCCCCCCCCCCCCCCC(=O)N[C@@H](CCC(=O)O)C(=O)NCCCC[C@H](NC(=O)[C@H](CCCNC(=N)N)NC(=O)[C@H](CO)NC(=O)[C@H](Cc1c[nH]c2ccccc12)NC(=O)[C@H](CCCNC(=N)N)NC(=O)[C@H](CC(C)C)NC(=O)[C@@H](N)[C@@H](C)CC)C(N)=O` [JM #192, ILRWSRK(Glu-Pal)-NH2] (H-ILRWSRK([Glu-Palmitoyl])-NH2; N-terminus assumed), the “reduction of CXCL12 induced calcium-signaling” value in series [1] is reported as “almost completely blocked calcium-signaling”. Besides, half-maximal inhibition in series [2] (IC50) required 2 nM. Moreover, the “inhibition of CXCL12 induced migration of T-cells (in words)” value in [3] is given as “high activity”. In addition, the “remaining activity in human S9 liver fractions after 2 hours” value in series [4] (2 hours) is given as “faster inactivation”. For the same molecule, the “remaining activity in human S9 liver fractions after 8 hours” value in series [4] (8 hours) is on record as “more rapidly degraded compared to their N-terminally modified variants”. For the setting “mice, i.v. tail vein, 4 hours post injection”, the “remaining activity in plasma in vivo 4 hours post injection” value is recorded as “completely lost”.
As for “C-deferoxamine linked JM #122: JM #122 with deferoxamine conjugated via an additional C-terminal cysteine as (succinimido-propionyl-desferrioxamine) acetate (ILRWSRKLPSVS-{C(succinimido-propionyl-desferrioxamine)}; also: acetate salt)”, in series [5], the “biodistribution by PET” value is “rapid (5 min post injection) absorption of the peptide by the kidneys and subsequent release into the bladder”.
In the case of “ILRWSRK(Glu-Ste)-NH2 (ILRWSRK([Glu-Stearoyl])-NH2) [JM #255]”, the “remaining activity in human S9 liver fractions after 8 hours” value in [6] is “more rapidly degraded compared to their N-terminally modified variants”. For the same molecule, the “inhibition of cell migration” value in series [3] (30 nM peptide) is recorded as “almost complete inhibition of cell migration”.
As to “ILRWSRK(Glu-Ste)LPCVS (ILRWSRK([Glu-Stearoyl])LPCVS) [JM #198]”, the “remaining activity in human S9 liver fractions after 8 hours” value in series [6] was “more stable than its palmitoylated counterpart JM #143”. Besides, for the setting “mouse, in vivo, iv, 4 h”, the “remaining activity in plasma in vivo 4 hours post injection” value is on record as “remained completely active”. Also, the “remaining activity in plasma in vivo 8 hours post injection” value (mouse, in vivo, iv, 8 h) is given as 33%. The “remaining activity in plasma in vivo after 24 hours” value (mouse, in vivo, iv, 24 h) was “completely eliminated”.
As to `CC(C)C[C@H](NC(=O)[C@@H](NC(=O)[C@@H]1CCCN1C(=O)[C@@H](NC(=O)[C@H](CO)NC(=O)[C@@H](NC(=O)[C@H](CCC(N)=O)NC(=O)[C@@H]1CCCN1C(=O)[C@@H](NC(=O)[C@H](CCCCN)NC(=O)[C@H](CCCCN)NC(=O)[C@@H](NC(=O)[C@H](Cc1ccc(O)cc1)NC(=O)[C@H](CCCNC(=N)N)NC(=O)[C@@H](NC(=O)[C@@H](N)CC(C)C)C(C)C)[C@@H](C)O)C(C)C)C(C)C)[C@@H](C)O)[C@@H](C)O)C(=O)O` [EPIX4] (H-LVRYTKKVPQVSTPTL-OH; N-terminus and C-terminus assumed), the IC50 in series [7] was 1780 nM; in [8], 1460 nM.
ILRWSRKLK([Glu-Palmitoyl])-NH2 [JM#193] came in with an IC50 in [9] of 3 nM.
ILRWSRKLP-NH2 [JM#114]: the “IC50, HIV inhibition assay” value in [10] is over 150 nM. For the same molecule, the IC50 in series [11] came to 232 nM; in series [9] it was 268 nM.

B1: JM#206 (peptide)
peptide: ILRWSRKLPCVSK(DOTA)
notes: JM#21 with DOTA; also called DOTA-K-JM#21
In series [12], B1 registered an IC50 of 206 nM. In series [13], the binding result is on record as “binds”.

B2: JM#207 (peptide)
peptide: ILRWSRKLPSVSK(DOTA)
notes: JM#122 with DOTA; also called DOTA-K-JM#122
As to B2, the IC50 in series [12] was 207 nM. Moreover, the binding result in series [13] is recorded as “binds”.
Regarding ILRWSRKK-NH2 (not fully specified (residue 8)) [JM#191], in series [14], the half-inhibitory concentration (IC50) amounted to 1 nM, the “fold more effective binding than EPI-X4” value is over 2000 fold and the “fold more effective than WSC02” value is about 300 fold. This molecule showed an IC50 in series [9] of 3 nM.
With ILRWSRKLPCVS [JM#21], the “fold effectiveness against WSC02, AKT signaling” value in [10] is about 10 fold. For the same molecule, the “fold more effective X4-HIV-1 inhibition than EPI-X4” value in series [10] is about 100 fold. In addition, the values for the IC50 in series [15], in series [16] and in [12] were 211 nM, 147 nM and 358 nM, respectively.
With IVRWSKKVPCVS [WSC02], the “IC50, X4-HIV-1 inhibition assay” value in series [10] amounted to 310 nM. The IC50 in series [14] was 350 nM; in series [15], 254 nM; in series [16] it was 274 nM; in [12], 413 nM.
As to LVRYTKKVPQVSTPTL (modifications not checked) [EPI-X4], the IC50 in [17] worked out at 2500 nM. The molecule further showed a half-maximal inhibitory concentration (IC50) in series [18] of 2140 nM. Also, in [19], the IC50, X4-HIV-1 inhibition assay was found to be 8630 nM and the reduction of AKT phosphorylation at 10 µM worked out at 40%.
